Laboratory results taken from EP4786492A1.

Legend:
[1] = molecular target: monkey DLL3 on CHO-K1-cyno DLL3 cells (cynomolgus monkey); experiment: FACS, CHO-K1-cyno DLL3 cells, 0.16 nM antibody
[2] = molecular target: DLL3 endogenously expressed on NCI-H82 cells (UniProt Q9NYJ7); experiment: FACS on NCI-H82 cells; antibody 0.16 nM
[3] = molecular target: mouse DLL3 on CHO-K1-mDLL3 cells (mouse) (UniProt O88516); experiment: FACS, CHO-K1-mDLL3 cells, 0.032 nM antibody
[4] = molecular target: monkey DLL3 on CHO-K1-cyno DLL3 cells (cynomolgus monkey); experiment: FACS, CHO-K1-cyno DLL3 cells, 0.00128 nM antibody
[5] = molecular target: monkey DLL3 on CHO-K1-cyno DLL3 cells (cynomolgus monkey); experiment: FACS, CHO-K1-cyno DLL3 cells, 100 nM antibody
[6] = molecular target: mouse DLL3 on CHO-K1-mDLL3 cells (mouse) (UniProt O88516); experiment: FACS, CHO-K1-mDLL3 cells, 0.8 nM antibody
[7] = molecular target: monkey DLL3 on CHO-K1-cyno DLL3 cells (cynomolgus monkey); experiment: FACS, CHO-K1-cyno DLL3 cells, 0.032 nM antibody
[8] = molecular target: human DLL3 protein expressed on CHO-K1 recombinant cells (human DLL3 extracellular segment fused to EpCAM transmembrane and intracellular regions) (human) (UniProt Q9NYJ7); experiment: FACS, CHO-K1 hDLL3 cells, 0.16 nM antibody
Sequence of human DLL3 protein expressed on CHO-K1 recombinant cells (human DLL3 extracellular segment fused to EpCAM transmembrane and intracellular regions) (human) (Q9NYJ7 other isoform, or with tags, fused parts or gaps limits assumed): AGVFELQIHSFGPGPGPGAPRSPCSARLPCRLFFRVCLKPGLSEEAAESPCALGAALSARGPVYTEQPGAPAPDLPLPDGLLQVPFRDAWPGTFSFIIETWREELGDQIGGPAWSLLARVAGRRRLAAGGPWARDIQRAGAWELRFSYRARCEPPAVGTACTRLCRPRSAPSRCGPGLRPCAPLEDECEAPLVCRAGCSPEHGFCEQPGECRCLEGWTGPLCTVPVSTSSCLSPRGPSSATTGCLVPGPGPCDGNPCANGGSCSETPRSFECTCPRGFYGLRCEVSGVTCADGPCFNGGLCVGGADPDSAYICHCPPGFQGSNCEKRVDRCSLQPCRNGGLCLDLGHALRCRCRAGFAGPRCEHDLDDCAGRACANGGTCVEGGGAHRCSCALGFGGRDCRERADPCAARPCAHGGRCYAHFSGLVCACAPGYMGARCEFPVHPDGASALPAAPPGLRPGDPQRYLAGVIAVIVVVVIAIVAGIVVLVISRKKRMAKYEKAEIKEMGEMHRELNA

[9] = molecular target: DLL3 endogenously expressed on NCI-H82 cells (UniProt Q9NYJ7); experiment: FACS on NCI-H82 cells; antibody 20 nM
[10] = molecular target: mouse DLL3 on CHO-K1-mDLL3 cells (mouse) (UniProt O88516); experiment: FACS, CHO-K1-mDLL3 cells, 0.16 nM antibody
[11] = molecular target: monkey DLL3 on CHO-K1-cyno DLL3 cells (cynomolgus monkey); experiment: FACS, CHO-K1-cyno DLL3 cells, 0.0064 nM antibody
[12] = molecular target: human DLL3 protein (extracellular segment, His tag) (human) (UniProt Q9NYJ7); experiment: SPR (Biacore 8K), antibody captured on Protein A chip, DLL3 antigen in solution, 1:1 Langmuir fit
Sequence of human DLL3 protein (extracellular segment, His tag) (human) (Q9NYJ7 27-492): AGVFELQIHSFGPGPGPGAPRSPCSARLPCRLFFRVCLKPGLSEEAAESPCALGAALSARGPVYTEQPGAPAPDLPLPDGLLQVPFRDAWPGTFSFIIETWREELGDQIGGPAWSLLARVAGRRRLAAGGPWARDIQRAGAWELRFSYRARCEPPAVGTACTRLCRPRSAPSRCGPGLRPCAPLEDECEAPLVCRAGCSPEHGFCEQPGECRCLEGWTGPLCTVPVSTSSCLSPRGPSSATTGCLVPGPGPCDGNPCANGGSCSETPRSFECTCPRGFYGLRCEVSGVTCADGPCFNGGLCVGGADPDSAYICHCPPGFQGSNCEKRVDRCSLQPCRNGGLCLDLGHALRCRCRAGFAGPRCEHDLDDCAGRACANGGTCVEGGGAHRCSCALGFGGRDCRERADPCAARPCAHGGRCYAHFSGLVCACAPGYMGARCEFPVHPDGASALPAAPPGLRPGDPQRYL

[13] = molecular target: DLL3 endogenously expressed on NCI-H82 cells (UniProt Q9NYJ7); experiment: FACS on NCI-H82 cells; antibody 100 nM
[14] = molecular target: human DLL3 protein expressed on CHO-K1 recombinant cells (human DLL3 extracellular segment fused to EpCAM transmembrane and intracellular regions) (human) (UniProt Q9NYJ7); experiment: FACS, CHO-K1 hDLL3 cells, 0.032 nM antibody
[15] = molecular target: monkey DLL3 on CHO-K1-cyno DLL3 cells (cynomolgus monkey); experiment: FACS, CHO-K1-cyno DLL3 cells, 20 nM antibody
[16] = molecular target: mouse DLL3 on CHO-K1-mDLL3 cells (mouse) (UniProt O88516); experiment: FACS, CHO-K1-mDLL3 cells, 4 nM antibody
[17] = molecular target: DLL3 endogenously expressed on NCI-H82 cells (UniProt Q9NYJ7); experiment: FACS on NCI-H82 cells; antibody 0.00128 nM
[18] = molecular target: human delta-like ligand 3 (DLL3) on SHP77 cells (human) (UniProt Q9NYJ7); experiment: FACS on SHP77 cells
Sequence of human delta-like ligand 3 (DLL3) on SHP77 cells (human) (Q9NYJ7 27-618, stated change not applied): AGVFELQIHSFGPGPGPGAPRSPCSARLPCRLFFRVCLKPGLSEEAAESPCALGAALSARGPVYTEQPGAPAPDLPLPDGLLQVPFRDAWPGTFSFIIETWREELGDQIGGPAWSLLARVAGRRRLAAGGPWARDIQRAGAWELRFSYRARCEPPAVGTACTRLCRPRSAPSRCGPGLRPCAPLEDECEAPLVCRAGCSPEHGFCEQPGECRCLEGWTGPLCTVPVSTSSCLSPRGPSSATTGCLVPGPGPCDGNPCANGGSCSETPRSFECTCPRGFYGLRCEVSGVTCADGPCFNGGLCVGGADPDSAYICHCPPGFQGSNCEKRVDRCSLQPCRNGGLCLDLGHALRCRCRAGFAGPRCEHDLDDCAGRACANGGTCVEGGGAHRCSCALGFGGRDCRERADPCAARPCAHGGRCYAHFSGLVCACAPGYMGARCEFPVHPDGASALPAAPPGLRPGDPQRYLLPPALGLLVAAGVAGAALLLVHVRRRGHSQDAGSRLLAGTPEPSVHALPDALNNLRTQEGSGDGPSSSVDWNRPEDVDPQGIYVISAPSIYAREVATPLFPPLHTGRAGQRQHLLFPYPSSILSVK

[19] = molecular target: human DLL3 protein expressed on CHO-K1 recombinant cells (human DLL3 extracellular segment fused to EpCAM transmembrane and intracellular regions) (human) (UniProt Q9NYJ7); experiment: FACS, CHO-K1 hDLL3 cells, 0.0064 nM antibody
[20] = molecular target: DLL3 endogenously expressed on NCI-H82 cells (UniProt Q9NYJ7); experiment: FACS on NCI-H82 cells; antibody 0.8 nM
[21] = molecular target: mouse DLL3 on CHO-K1-mDLL3 cells (mouse) (UniProt O88516); experiment: FACS, CHO-K1-mDLL3 cells, 20 nM antibody
[22] = molecular target: human DLL3 protein expressed on CHO-K1 recombinant cells (human DLL3 extracellular segment fused to EpCAM transmembrane and intracellular regions) (human) (UniProt Q9NYJ7); experiment: FACS, CHO-K1 hDLL3 cells, 0.00128 nM antibody
[23] = molecular target: DLL3 endogenously expressed on NCI-H82 cells (UniProt Q9NYJ7); experiment: FACS on NCI-H82 cells; antibody 0.0064 nM
[24] = molecular target: human DLL4 protein (Acro, Cat. No. DL4-H5227) (human) (UniProt Q9NR61); experiment: ELISA, coated hDLL4; maximum over 0.1, 1, 10, 100 nM antibody
Sequence of human DLL4 protein (Acro, Cat. No. DL4-H5227) (human) (Q9NR61 27-524 limits assumed): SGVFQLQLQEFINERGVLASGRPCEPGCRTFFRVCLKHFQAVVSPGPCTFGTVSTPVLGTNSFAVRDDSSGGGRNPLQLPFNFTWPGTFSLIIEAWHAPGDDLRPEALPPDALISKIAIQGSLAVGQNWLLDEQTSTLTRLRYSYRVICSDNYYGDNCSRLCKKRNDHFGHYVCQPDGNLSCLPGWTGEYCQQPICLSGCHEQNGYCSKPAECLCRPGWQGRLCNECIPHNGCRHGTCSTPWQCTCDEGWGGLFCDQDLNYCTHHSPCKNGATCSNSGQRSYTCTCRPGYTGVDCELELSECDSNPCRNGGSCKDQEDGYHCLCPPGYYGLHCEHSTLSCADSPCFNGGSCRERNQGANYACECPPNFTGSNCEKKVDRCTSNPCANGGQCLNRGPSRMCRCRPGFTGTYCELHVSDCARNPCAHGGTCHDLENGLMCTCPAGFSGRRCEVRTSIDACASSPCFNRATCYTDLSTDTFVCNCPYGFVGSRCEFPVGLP

[25] = molecular target: monkey DLL3 on CHO-K1-cyno DLL3 cells (cynomolgus monkey); experiment: FACS, CHO-K1-cyno DLL3 cells, 4 nM antibody
[26] = molecular target: human DLL3 protein expressed on CHO-K1 recombinant cells (human DLL3 extracellular segment fused to EpCAM transmembrane and intracellular regions) (human) (UniProt Q9NYJ7); experiment: FACS, CHO-K1 hDLL3 cells, 0.8 nM antibody
[27] = molecular target: human DLL3 protein expressed on CHO-K1 recombinant cells (human DLL3 extracellular segment fused to EpCAM transmembrane and intracellular regions) (human) (UniProt Q9NYJ7); experiment: FACS, CHO-K1 hDLL3 cells, 4 nM antibody
[28] = molecular target: human DLL3 protein expressed on CHO-K1 recombinant cells (human DLL3 extracellular segment fused to EpCAM transmembrane and intracellular regions) (human) (UniProt Q9NYJ7); experiment: FACS, CHO-K1 hDLL3 cells, 20 nM antibody
[29] = molecular target: mouse DLL3 on CHO-K1-mDLL3 cells (mouse) (UniProt O88516); experiment: FACS, CHO-K1-mDLL3 cells, 100 nM antibody
[30] = molecular target: human DLL1 protein (Acro, Cat. No. DL1-H52H8) (human) (UniProt O00548); experiment: ELISA, coated hDLL1; maximum over 0.1, 1, 10, 100 nM antibody
Sequence of human DLL1 protein (Acro, Cat. No. DL1-H52H8) (human) (O00548 18-540 limits assumed): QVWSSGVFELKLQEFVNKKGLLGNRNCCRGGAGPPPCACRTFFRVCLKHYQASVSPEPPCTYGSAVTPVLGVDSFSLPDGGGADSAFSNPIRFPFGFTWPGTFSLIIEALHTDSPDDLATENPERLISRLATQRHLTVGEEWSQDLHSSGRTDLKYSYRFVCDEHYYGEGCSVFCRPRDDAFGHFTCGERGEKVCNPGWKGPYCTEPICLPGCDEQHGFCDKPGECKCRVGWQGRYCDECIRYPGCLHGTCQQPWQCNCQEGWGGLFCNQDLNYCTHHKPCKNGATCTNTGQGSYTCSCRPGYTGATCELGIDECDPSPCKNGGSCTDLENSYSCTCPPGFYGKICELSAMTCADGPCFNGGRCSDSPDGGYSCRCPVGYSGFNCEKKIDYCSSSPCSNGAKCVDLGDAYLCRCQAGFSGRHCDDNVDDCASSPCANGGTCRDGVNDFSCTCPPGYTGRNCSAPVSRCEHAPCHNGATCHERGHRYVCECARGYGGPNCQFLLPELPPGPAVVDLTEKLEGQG

[31] = molecular target: mouse DLL3 on CHO-K1-mDLL3 cells (mouse) (UniProt O88516); experiment: FACS, CHO-K1-mDLL3 cells, 0.00128 nM antibody
[32] = molecular target: mouse DLL3 on CHO-K1-mDLL3 cells (mouse) (UniProt O88516); experiment: FACS, CHO-K1-mDLL3 cells, 0.0064 nM antibody
[33] = molecular target: DLL3 endogenously expressed on NCI-H82 cells (UniProt Q9NYJ7); experiment: FACS on NCI-H82 cells; antibody 4 nM
[34] = molecular target: monkey DLL3 on CHO-K1-cyno DLL3 cells (cynomolgus monkey); experiment: FACS, CHO-K1-cyno DLL3 cells, 0.8 nM antibody
[35] = molecular target: DLL3 endogenously expressed on NCI-H82 cells (UniProt Q9NYJ7); experiment: FACS on NCI-H82 cells; antibody 0.032 nM
[36] = molecular target: human DLL3 protein expressed on CHO-K1 recombinant cells (human DLL3 extracellular segment fused to EpCAM transmembrane and intracellular regions) (human) (UniProt Q9NYJ7); experiment: FACS, CHO-K1 hDLL3 cells, 100 nM antibody

Sequence of mouse DLL3 on CHO-K1-mDLL3 cells (mouse) (O88516 other isoform, or with tags, fused parts or gaps limits assumed): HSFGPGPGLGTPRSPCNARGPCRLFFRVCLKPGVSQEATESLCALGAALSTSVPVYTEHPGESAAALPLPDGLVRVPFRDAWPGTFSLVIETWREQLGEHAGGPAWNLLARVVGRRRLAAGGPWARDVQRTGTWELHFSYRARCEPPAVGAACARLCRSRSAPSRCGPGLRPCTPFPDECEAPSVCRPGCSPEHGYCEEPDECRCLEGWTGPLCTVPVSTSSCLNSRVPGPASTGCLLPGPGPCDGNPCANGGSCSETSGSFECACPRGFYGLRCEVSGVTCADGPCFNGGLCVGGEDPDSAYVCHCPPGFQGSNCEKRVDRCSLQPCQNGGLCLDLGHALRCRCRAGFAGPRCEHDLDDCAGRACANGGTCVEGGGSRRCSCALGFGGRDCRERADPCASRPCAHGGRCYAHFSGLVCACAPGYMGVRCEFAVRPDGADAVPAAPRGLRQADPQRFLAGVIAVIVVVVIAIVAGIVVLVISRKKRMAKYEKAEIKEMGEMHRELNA
Sequence of monkey DLL3 on CHO-K1-cyno DLL3 cells (cynomolgus monkey) (chain, as listed by the source limits assumed): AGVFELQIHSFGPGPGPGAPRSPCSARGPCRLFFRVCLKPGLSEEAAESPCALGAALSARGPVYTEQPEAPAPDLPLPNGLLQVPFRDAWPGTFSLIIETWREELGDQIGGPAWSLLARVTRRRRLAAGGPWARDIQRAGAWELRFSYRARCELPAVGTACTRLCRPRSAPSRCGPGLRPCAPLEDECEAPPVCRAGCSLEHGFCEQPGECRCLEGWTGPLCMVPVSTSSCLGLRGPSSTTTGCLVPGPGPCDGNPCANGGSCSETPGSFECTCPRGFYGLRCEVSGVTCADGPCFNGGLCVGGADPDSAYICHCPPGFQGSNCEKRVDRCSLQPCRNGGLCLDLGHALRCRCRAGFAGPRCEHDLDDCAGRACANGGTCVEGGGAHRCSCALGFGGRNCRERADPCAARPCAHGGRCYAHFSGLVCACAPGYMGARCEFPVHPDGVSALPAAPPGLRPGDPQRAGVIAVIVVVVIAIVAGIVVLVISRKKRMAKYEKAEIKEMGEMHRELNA
Sequence of DLL3 endogenously expressed on NCI-H82 cells (Q9NYJ7 27-618): as the sequence (Q9NYJ7 27-618, stated change not applied) above

B1: Hab014VL3VH1-hFc (scFv, part only; not given: VL-VH linker and human IgG1 Fc, V domains shown, not shown: another chain or arm of the molecule; a dimerising Fc or GST; small tags and cut ends)
VL: DIVMTQSPDSLAVSLGERATINCKASEDIYNRLAWYQQKPGQTPKLLISGATSLETGVPDRFSGSGSGKDFTLTISSLQAEDVAVYYCQQYWSLPWTFGGGTKVEIK
VH: EVQLVQSGAEVKKPGASVKVSCKASGYTFTDYYMNWVRQAPGQRLEWMGDINPNHGDTGYNQKFTGRVTITVDKSASTAYMELSSLRSEDTAVYYCARNFFYYGTTYGWYFDVWGQGTTVTVSS
Q: B1 was tested. Which MFI [1] did it give?
A: 1730 MFI

Q: And the MFI [2]?
A: 356

Q: And the MFI [3]?
A: 137 MFI

Q: And the MFI [4]?
A: 180 MFI

Q: What about the MFI [5] of the same binder?
A: 33900 MFI

Q: What about the MFI [6] of the same binder?
A: 253 MFI

Q: And the MFI [7]?
A: 565 MFI

Q: And the MFI [8]?
A: 2060 MFI

Q: What about the MFI [9] of the same binder?
A: 732

Q: And the MFI [10]?
A: 192 MFI

Q: And the MFI [11]?
A: 245 MFI

Q: And the Kd [12]?
A: 0.0946 nM

Q: And the koff [12]?
A: 0.000129 s⁻¹

Q: And the kon [12]?
A: 1.36e+06 M⁻¹ s⁻¹

Q: What about the MFI [13] of the same binder?
A: 1030

Q: And the MFI [14]?
A: 555 MFI

Q: What about the MFI [15] of the same binder?
A: 32500 MFI

Q: What about the MFI [16] of the same binder?
A: 296 MFI

Q: What about the MFI [17] of the same binder?
A: 108

Q: What about the MFI at 0.00128 nM [18] of the same binder?
A: 91 MFI

Q: And the MFI at 0.0064 nM [18]?
A: 96 MFI

Q: And the MFI at 0.032 nM [18]?
A: 112 MFI

Q: What about the MFI at 0.16 nM [18] of the same binder?
A: 179 MFI

Q: What about the MFI at 0.8 nM [18] of the same binder?
A: 348 MFI

Q: What about the MFI at 4 nM [18] of the same binder?
A: 567 MFI

Q: What about the MFI at 20 nM [18] of the same binder?
A: 770 MFI

Q: What about the MFI at 100 nM [18] of the same binder?
A: 1120 MFI

Q: What about the MFI [19] of the same binder?
A: 299 MFI

Q: And the MFI [20]?
A: 547

Q: And the MFI [21]?
A: 332 MFI

Q: And the MFI [22]?
A: 207 MFI

Q: What about the MFI [23] of the same binder?
A: 125

Q: And the Emax of OD450 nm binding value [24]?
A: 0.1 OD450 nm

Q: And the MFI [25]?
A: 27700 MFI

Q: And the MFI [26]?
A: 7320 MFI

Q: And the MFI [27]?
A: 15300 MFI

Q: What about the MFI [28] of the same binder?
A: 15700 MFI

Q: What about the MFI [29] of the same binder?
A: 382 MFI

Q: What about the Emax of OD450 nm binding value [30] of the same binder?
A: 0.08 OD450 nm

Q: What about the MFI [31] of the same binder?
A: 103 MFI

Q: What about the MFI [32] of the same binder?
A: 110 MFI

Q: What about the MFI [33] of the same binder?
A: 596

Q: What about the MFI [34] of the same binder?
A: 8680 MFI

Q: What about the MFI [35] of the same binder?
A: 178

Q: What about the MFI [36] of the same binder?
A: 16500 MFI

B2: Hab015VL4VH1b-hFc (scFv, part only; not given: VL-VH linker and human IgG1 Fc, V domains shown, not shown: another chain or arm of the molecule; a dimerising Fc or GST; small tags and cut ends)
VL: NIVLTQSPATLSLSPGERATLSCKASENVGTYVSWFQQKPGQSPRLLIYGASNRYTGIPARFSGSGSGTDFTLTISSLEPEDFAVYYCGQFYSFPSTFGGGTKVEIK
VH: EVQLVESGGGLVKPGGSLRLSCAASGITFSNFWMNWVRQAPGKGLEWVGQIRLKSEDYATHYAESVKGRFTISREDSKNTVYLQMNSLKTEDTAVYYCTTGYYFDYWGQGTTVTVSS
Q: How did the MFI [1] turn out when B2 was run?
A: 1200 MFI

Q: And the MFI [2]?
A: 461

Q: What about the MFI [3] of the same binder?
A: 172 MFI

Q: And the MFI [4]?
A: 117 MFI

Q: And the MFI [5]?
A: 7520 MFI

Q: What about the MFI [6] of the same binder?
A: 813 MFI

Q: What about the MFI [7] of the same binder?
A: 389 MFI

Q: What about the MFI [8] of the same binder?
A: 937 MFI

Q: What about the MFI [9] of the same binder?
A: 1130

Q: And the MFI [10]?
A: 350 MFI

Q: What about the MFI [11] of the same binder?
A: 163 MFI

Q: What about the Kd [12] of the same binder?
A: 0.0194 nM

Q: And the koff [12]?
A: 3.49e-05 s⁻¹

Q: And the kon [12]?
A: 1.8e+06 M⁻¹ s⁻¹

Q: And the MFI [13]?
A: 1410

Q: What about the MFI [14] of the same binder?
A: 302 MFI

Q: What about the MFI [15] of the same binder?
A: 6820 MFI

Q: And the MFI [16]?
A: 1120 MFI

Q: And the MFI [17]?
A: 114

Q: What about the MFI at 0.00128 nM [18] of the same binder?
A: 97 MFI

Q: And the MFI at 0.0064 nM [18]?
A: 113 MFI

Q: What about the MFI at 0.032 nM [18] of the same binder?
A: 169 MFI

Q: And the MFI at 0.16 nM [18]?
A: 371 MFI

Q: What about the MFI at 0.8 nM [18] of the same binder?
A: 720 MFI

Q: And the MFI at 4 nM [18]?
A: 829 MFI

Q: And the MFI at 20 nM [18]?
A: 962 MFI

Q: What about the MFI at 100 nM [18] of the same binder?
A: 1190 MFI

Q: And the MFI [19]?
A: 152 MFI

Q: And the MFI [20]?
A: 914

Q: What about the MFI [21] of the same binder?
A: 1340 MFI

Q: And the MFI [22]?
A: 120 MFI

Q: And the MFI [23]?
A: 131

Q: What about the Emax of OD450 nm binding value [24] of the same binder?
A: 0.67 OD450 nm

Q: And the MFI [25]?
A: 6270 MFI

Q: And the MFI [26]?
A: 4640 MFI

Q: What about the MFI [27] of the same binder?
A: 10300 MFI

Q: What about the MFI [28] of the same binder?
A: 11300 MFI

Q: And the MFI [29]?
A: 1490 MFI

Q: And the Emax of OD450 nm binding value [30]?
A: 0.39 OD450 nm

Q: And the MFI [31]?
A: 114 MFI

Q: And the MFI [32]?
A: 123 MFI

Q: What about the MFI [33] of the same binder?
A: 1020

Q: And the MFI [34]?
A: 4290 MFI

Q: And the MFI [35]?
A: 218

Q: What about the MFI [36] of the same binder?
A: 11800 MFI
